Among the data in article doi:10.1101/2020.10.12.335539 are percent reduction of FcγRIII binding to immune complexes and percent reduction of FcγRIII binding to opsonized infected cells values, retold here.

For test [1], the target named is humanized anti-hCD20 IgG1 (Rituximab) (human). Nature of the test: flow cytometry on cells.
Test [2] deals with HCMV-IgG hyperimmunoglobulin preparation (Cytotect) (human). Kind of test: flow cytometry on cells. Background: Flow cytometry measures light scatter and fluorescence of single cells or particles in a stream.

As to CD4-tailed gp68 (gp68-CD4), the percent reduction of FcγRIII binding to immune complexes in test [1] amounted to 60%.
In test [2], “HCMV gp68 on the surface of HCMV AD169/pBAC2-infected MRC-5 cells (from UniProt P16739 24-345) (natural protein)” had a percent reduction of FcγRIII binding to opsonized infected cells of 60%.
